In publication PMC10853454, “ADAM19 cleaves the PTH receptor and associates with brachydactyly type E” (Life Science Alliance, 2024):

How the values were obtained:
[1] = system: ADAM19 / EYFP-PTHR1; assay: ADAM19 shedding assay, EYFP-PTHR1 supernatant/cell fluorescence ratio; assay type: cell-based, human; details: HEK-293T cells, EYFP-PTHR1 + WT ADAM19; 100 μM ilomastat in DMEM from 1 h after transfection, 48 h (method: 47 h); EYFP fluorescence 500/539 nm; n = 5, t test
Experimental: For fluorescence-based shedding experiments, HEK-293T cells were seeded in six-well cell culture plates at a density of 500,000 cells per well 24 h prior to transfection. Next day, cells in each well were transfected with 0.4 μg EYFP-PTHR1 plasmid and 0.8 μg ADAM19 or empty pcDNA3 vector plasmids. For the experiments in which the different ADAM:EYFP-PTHR1 ratios were examined, cells were transfected with a constant 0.3 μg EYFP-PTHR1 construct alongside with varying amounts of ADAM19 and pcDNA constructs to maintain the total DNA amount of 1.2 μg. 1 h after transfection, cells were supplemented with DMEM or with 100 μM ilomastat dissolved in DMEM. […] 96-well plate fluorescence measurements were performed using a Biotek Neo2 multi-well plate reader. EYFP intensity was measured using high lamp power settings at an excitation wavelength of 500/18 nm. Fluorescence was detected using a monochromator set to 539/20 nm for emission and a photomultiplier tube set to 120 V gain. To calculate and quantify the ADAM19-mediated shedding of PTHR1 N-terminus, background fluorescence value obtained from pure DMEM was subtracted from fluorescence values obtained from cell culture medium (Fsupernatant) and cell suspensions (Fcell), and then the ratio of background-corrected fluorescence values was calculated: Ratio = Fsupernatant/Fcell. […]

[2] = system: ADAM19 cleavage of PTHR1; assay: PTHR1 cleavage by ADAM19, Western blot after PNGase F de-glycosylation; assay type: cell-based, human; details: HEK-293T (text: HEK 293) cells, unmodified PTHR1 + ADAM19, 10 μM batimastat, inhibitors added 24 h, lysis 36 h after transfection, Western blot anti PTHR1 573–593
Experimental: HEK-293T cells were seeded onto 12-well plates and transfected with plasmids encoding human P[…], ADAM-19 using TransIT-293 (Mirus) according to the manufacturer's instructions. Protease inhibitors were added to the medium 24 h after transfection as indicated. 36 h after transfection, cells were washed with PBS and lysed in ice-cold radioimmune precipitation assay buffer (50 mM Tris-HCl, pH 7.5, 150 mM NaCl, 1% [wt/vol] Nonidet P-40, 0.1% [wt/vol] SDS, 0.5% [wt/vol] sodium deoxycholate, 5 mM EDTA) supplemented with a mix of protease inhibitors (5 μM leupeptin, 5 μM pepstatin-A, 1 mM 4-(2-aminoethyl) benzenesulfonyl fluoride). The lysates were cleared by centrifugation at 20,000g for 30 min at 4°C. For deglycosylation, lysates were incubated with 40 mM dethiothreitol and 0.5% SDS for 90 min at 25°C. Thereafter, 1 mg/ml PNGase F was added, and samples were incubated for 16 h at 4°C. Proteins were separated by 8% or 10% SDS-PAGE and transferred onto PVDF membranes ([…], #T830.1; Carl Roth). The membranes were blocked in 5% skimmed milk powder (Sigma-Aldrich) or in casein solution (Sigma-Aldrich) for 1 h at RT. […] Proteins were detected either after short incubation in Immobilon Western ECL substrate (#WBKLS0500; Millipore) on an Odyssey FC device (Li-cor Biosciences) or on an Odyssey CLx scanner (Li-cor Biosciences). […]

[3] = system: PTHR1 (cAMP accumulation); assay: FRET-based cAMP accumulation assay (Epac-S-H187) in U2OS cells; assay type: cell-based, human; details: 500 pM ligand
Experimental: For cAMP accumulation assays, U2OS cells were seeded on Poly-D- Lysine-coated 24 mm glass cover slips in 6-well plates at a density of 1.0 × 10^6 cells/well and transfected with 1–2.4 μg cDNA per cover slip using Effectene (QIAGEN) or NEON electroporation (Thermo Fisher Scientific) according to the manufacturer’s protocol. cDNA was transfected with the EPAC-S-H187 FRET-biosensor ([Klarenbeek et al, 2015]), PTHR1-wt and ADAM19 at a ratio of 1:1:2. Fluorescence microscopy experiments were performed 48 h after transfection. For single-cell FRET imaging experiments, transfected cells on coverslips were transferred to imaging chambers (Attoflur; Thermo Fisher Scientific) and washed once and maintained in FRET imaging buffer (144 mM NaCl, 5.4 mM KCl, 2 mM CaCl2 [Carl Roth GmbH & Co. KG], 1 mM MgCl 2 [AppliChem], 10 mM HEPES [Sigma-Aldrich Chemie GmbH]; pH = 7.3). For the experiment, the cells remained at RT throughout the experiment. […]
After selecting suitable cells at the microscope, regions of interest (single cells and a cell-free background region) were chosen and recording parameters were set using the Visiview 4.0 imaging software (Visitron Systems). Every 5 s, images of the donor and acceptor emission channels were recorded following donor excitation at 436 nm for 100 ms. […] After every experiment, direct YFP excitation at 505 nm (emission: 560 nm) was recorded as a unit of measurement for the expression level of the sensor.
For data analysis, raw emission intensities from CFP and YFP channels were exported and corrected for background (by subtracting the emission intensities of a cell free region) and bleed-through of the donor fluorescence into the acceptor channel ([Borner et al, 2011]). FRET ratios (CFP/FRET in %) were calculated and normalized to baseline average of 10 data points before ligand addition, set to 0% and Forskolin/3-iso-butyl-1 methylxanthine (max. cAMP response, set to 100%). […]

[4] = system: PTHR1 (Gs activation); assay: BRET-based Gs activation by PTHR1; assay type: cell-based, human; details: HEK-293T cells with ADAM19; Gs BRET sensor, 37°C; three independent experiments in duplicates
Experimental: (§1) U2OS, Saos2 and HEK-293T cells were transfected with Gs or Gq protein BRET biosensors ([Che et al, 2010]), PTHR1 and ADAM19 at a ratio of 1:1:2. For β-arrestin2 BRET recruitment assay, PTHR1-Nanoluc was used with β-arrestin2-cpVenus and ADAM19 at a ratio of 1:1:2 ([Nemec et al, 2022]). Combinations were transfected with Effectene (QIAGEN) or NEON electroporation (Thermo Fisher Scientific) according to the manufacturer’s protocol with a total of 1–2.4 μg of cDNA. After 24 h cells were transferred into a PDL-precoated a white-wall, white-bottomed 96-well microtiter plate, at a density of 60,000 cells/well. 24 h after the reseeding, the medium was removed, and cells were washed once with PBS with 0.1% BSA and incubated with 90 μl of a 1:1,000 (vol:vol) stock solution of furimazine in PBS buffer. 5 min later, basal reads were recorded for 4 min and subsequently, 10 μl of 10-fold ligand solution or FRET buffer was applied to each well and the stimulated reads were further recorded. Measurements were performed at 37°C using a Synergy Neo2 Plate Reader with the NanoBRET filter set, integration time per data point was set to 0.3 s and gain to 110/140. Cells were excited at 510/20 nm and fluorescence emission was recorded at 560/20 nm for quantification of expression level ([Nemec et al, 2022]).

[5] = system: PTHR1 (Gq activation); assay: BRET-based Gq activation by PTHR1; assay type: cell-based, human
Experimental: as §1

[6] = system: PTHR1 (β-arrestin2 recruitment); assay: BRET β-arrestin2 recruitment to PTHR1 in U2OS cells; assay type: cell-based, human
Experimental: as §1

[7] = system: PTHR1 (β-arrestin2 recruitment); assay: BRET β-arrestin2 recruitment to PTHR1 in SaOS cells; assay type: cell-based, human; details: SaOS (Saos2) cells; PTHR1-Nanoluc + β-arrestin2-cpVenus BRET, 37°C
Experimental: as §1

[8] = system: PTH1R; details: ref Hattersley et al, 2016; cited from earlier work

## CNC(=O)[C@H](Cc1c[nH]c2ccccc12)NC(=O)[C@@H](CC(=O)NO)CC(C)C [Ilomastat (GM6001)]
[1]
  inhibition of PTHR1 cleavage by ADAM19: PTHR1 cleavage by ADAM19 was inhibited

## CNC(=O)[C@H](Cc1ccccc1)NC(=O)[C@H](CC(C)C)[C@H](CSc1cccs1)C(=O)NO [batimastat]
[2]
  PTHR1 species detected with ADAM19 co-expression: only the 60 kD species of PTHR1 were detected

## PTH1-34: PTHR1 ligand, BACHEM #4033364 (SVSEIQLMHNLGKHLNSMERVEWLRKKLQDVHNF; Parathyroid hormone; UniProt P01270 32-65, looked up, fragment)
[3]; U2OS cells with and without ADAM19, 0% = baseline, 100% = 10 μM Forskolin + 100 μM 3-iso-butyl-1 methylxanthine, "in both cases"
  increase of FRET ratio (CFP/FRET), average: 70–80%
[3]; U2OS cells, PTH1R + Epac-S-H187, alone and with ADAM19, single-cell FRET, RT, pH 7.3
  cAMP response: an increase in cAMP was detected
[3]; U2OS cells, PTH1-34 n = 96 cells on 5 days (Welch t test), PTHrP n = 76 cells on 2 days (Mann-Whitney)
  difference in cAMP response with vs without ADAM19: no significant differences

B1: PTH: parathyroid hormone; PTHR1 agonist, form used in BRET assays not specified (peptide, UniProt P01270 32-115, looked up)
Parathyroid hormone: SVSEIQLMHNLGKHLNSMERVEWLRKKLQDVHNFVALGAPLAPRDAGSQRPRKKEDNVLVESHEKSLGEADKADVNVLTKAKSQ
modifications: Parathyroid hormone
notes: parathyroid hormone; PTHR1 agonist, form used in BRET assays not specified
[4]
  Gs-activation for WT PTHR1 compared to cleavage-protected PTHR1-56-63A mutant: increased Gs-activation
[5]; HEK293T with ADAM19, three-parameter non-linear fit, extra sum of squares F test (<0.0001), Fig 6B-E legend, panels not distinguished
  Top of the curve (maximum efficacy), Gq, WT vs 56–63A mutant PTHR1: significantly different
[5]; HEK-293T cells with ADAM19, Gq BRET sensor, 37°C, three independent experiments in duplicates
  Gq-activation for WT PTHR1 compared to cleavage-protected PTHR1-56-63A mutant: decreased Gq-activation
[6]; PTHR1-Nanoluc + β-arrestin2-cpVenus BRET, 37°C, four experiments in quadruple
  β-arrestin2 recruitment to PTHR1, presence vs absence of ADAM19: significantly increased β-arrestin translocation to the PTHR1 when ADAM19 was present
[6]; three-parameter non-linear fit, extra sum of squares F test (<0.0001)
  Top of the curve (maximum efficacy), β-arrestin2 recruitment, with vs without ADAM19: significantly different
[7]
  β-arrestin2 recruitment to PTHR1, presence vs absence of ADAM19: significantly increased β-arrestin translocation to the PTHR1 when ADAM19 was present
[8]
  agonist type at PTH1R: full agonists
